A short description of data set [1]: Enzyme assay: amount of trehalose produced from maltose by PTTS. Type of data set: biochemical, Picrophilus torridus. The protocol: (§1) The activity of PTTS was assayed by measuring the amount of trehalose produced from maltose. The standard reaction was performed by adding 1.5 μL purified enzyme into 50 μL reaction solution containing 50 mM sodium phosphate (pH 6.0) and 150 mM maltose and incubating in a 45° C. water bath for 25 min. The assay time was under the linear range of enzyme reaction. The reaction was terminated by heating the mixture in boiling water for 15 min. One unit of enzyme activity was defined as the amount of enzyme that catalyzes the formation of 1 μmol of trehalose per min. Kinetic analysis was performed under conditions of pH 6.0 and 45° C. for 5 min in 50 mM sodium phosphate buffer containing substrate (maltose, trehalose, or maltose plus a constant 10 mM of glucose) at various concentrations. The resulting data were analyzed offline with Origin 6.0 software (Microcal, Northampton, Mass.). All experiments were carried out in duplicate or triplicate.
(§2) The amount of trehalose, glucose, and maltose after each enzymatic reaction was measured using a high performance liquid chromatography (HPLC) (SFD 2100) system equipped with an RI detector (Schambeck S F D, RI 2000) at a flow rate of 0.9 mL/min. A carbohydrate analysis column (HYPERSIL-100 Amino, Thermo Hypersil-Keystone) equilibrated with 75% acetonitrile, 24% Milli-Q water, and 1% formic acid was used. The retention times of glucose, maltose, and trehalose were 8.0, 11.2, and 12.5 min, respectively.

Data set [2] is classed as biochemical, Picrophilus torridus. Here is the method:
FIG. 2 is a graph which illustrates the effects of pH on the activity and stability of Picrophilus torridus trehalose synthase. The enzyme activities at various pH levels were examined at the maltose concentration of 150 mM and temperature of 45° C. for 25 min. The pH stability of Picrophilus torridus trehalose synthase enzyme was examined by measuring the residual activity of enzyme at pH 6.0 after pre-incubation in various pH levels at 45° C. for 20 min. The solid square (▪) and circle (●) notations indicate the enzyme activity under 50 mM sodium phosphate buffer (pH 6.0˜8.5) and 50 mM acetate buffer (pH 3.5˜6.0), respectively. The open square (□) and circle (◯) notations represent the pH stability under 50 mM sodium phosphate buffer (pH 6.0˜8.5) and 50 mM acetate buffer (pH 3.5˜6.0), respectively.
FIG. 3 is a graph which illustrates the effects of temperature on the activity and stability of Picrophilus torridus trehalose synthase. The enzyme activities at various temperatures were examined at the maltose concentration of 150 mM and pH 6.0 for 25 min. To examine temperature stability, the residual activity of the enzyme was measured at 45° C. after pre-incubation of the purified enzyme at different temperatures (4° C.˜100° C.) and pH 6.0 for 20 min. The solid circle (●) and open circle (◯) notations denote the enzyme activity and temperature stability, respectively, under various temperatures.
as §1
Effects of pH and Temperature on the Activity and Stability of Recombinant PTTS. The pH dependence of PTTS was studied at 45° C. in 50 mM acetate buffer (pH 3.5-6.0) or 50 mM phosphate buffer (pH 6.0-8.5) using 150 mM maltose as a substrate. […] The effects of temperature on PTTS activity and stability are depicted in FIG. 3. The optimum temperature was 45° C. and the enzyme maintained stability up to 60° C. at pH 6.0 for 20 min.

The nature of data set [3]: Kinetic analysis of PTTS with maltose or trehalose as substrate. Type of data set: biochemical, Picrophilus torridus. As to conditions: pH 6.0, 45° C., 5 min. The protocol:
as §1
Kinetics Analysis. Kinetic parameters of PTTS were investigated at pH 6.0 and 45° C. for 5 min using maltose or trehalose as substrate (FIG. 7). […] This kinetic data is useful for determining the baseline activity of the enzyme and enables one of skill in the art to use this activity as a criterion for the isolation or construction of variants having substantially equivalent enzymatic activity.

The nature of data set [4]: Effects of substrate concentration and temperature on the maximum yield of trehalose. Type of data set: biochemical, Picrophilus torridus. The protocol:
FIG. 4 is a graph which illustrates the effects of substrate concentration on the maximum yield of trehalose by Picrophilus torridus trehalose synthase. Purified enzyme was incubated with different concentrations of maltose in 50 mM sodium phosphate buffer (pH 6.0) at 45° C. Samples were collected at various intervals of reaction time and analyzed by HPLC. The symbols which indicated different concentrations of maltose are open square (□) 1 M; solid square (▪), 500 mM; solid triangle (▴), 250 mM; open rhombus (⋄), 150 mM, and open circle (◯), 50 mM.
FIG. 5 is a series of graphs illustrating the effects of temperature on the formation of trehalose (5A) and glucose (5B) from maltose (5C) by Picrophilus torridus trehalose synthase. Reaction mixtures containing purified Picrophilus torridus trehalose synthase, 150 mM maltose and pH 6.0 sodium phosphate buffer were incubated at various temperatures for 72 h. Samples were collected at various intervals and analyzed by HPLC. The symbols which indicated different reaction temperatures are open square (□) denoting temperature of 20° C.; solid square (▪) denoting temperature of 30° C.; solid triangle (▴) denoting temperature of 45° C.; and open triangle (Δ) denoting temperature of 0° C.
as §2
Effects of Substrate Concentration and Temperature on the Maximum Yield of Trehalose. The effects of the substrate concentration on the yield of trehalose by PTTS were examined at pH 6.0, 45° C., and various maltose concentrations. A maximum conversion was reached after 24 hour incubation for each reaction. The final yield of trehalose increased as the substrate concentration increased. […] Therefore, a higher maximum yield was gained at a lower temperature.

Test in data set [5]: as above
Type of data set: biochemical, Picrophilus torridus. The conditions noted are these: 150 mM maltose, pH 6.0, 60° C., three days.

Setting [6] is: 150 mM maltose, pH 6.0, 20° C., three days.
Setting [7] is: 150 mM maltose, pH 6.0, 30° C., three days.
Setting [8] is: 150 mM maltose, pH 6.0, 45° C., three days.
Setting [9] is: 150 mM maltose, pH 6.0, 60° C., three days.

The source of these data is patent publication US7927850B2, “Composition containing trehalose synthase and methods of use thereof” (Academia Sinica, priority 2006, dated 2011).

B1: native PTTS: Picrophilus torridus trehalose synthase protein without the linker and hexahistidine tag (SEQ ID NO: 3) (protein, listed as Picrophilus torridus)
chain: MLDNNGLWYRDAVFYEVPVKSFYDSNNDGIGDFNGLTMKLDYLKKLGVDALWLLPFYKSPLKDDGYDISDYYSILPEYGTIDDFKNFIDTAHSMNIRVIADLVLNHVSDQHPWFIESRSSIDNPKRDWFIWSDTPEKFKEARIIFIDTEKSNWTYDPETKQYYFHRFYSSQPDLNYDNPDVRNEVKKVIRYWLDLGLDGFRADAVPYLFKRENTNCENLPETHNFFKEIRKMMDEDYPGTILLAEANQWPTETKAYFGNGDEFHMAFNFPLMPRIFIALARSDYYPIMDIIKQTLPIPDNCDWCIFLRNHDELTLEMVTDSERDIMYREYAKIPKMRLNLGIRRRLAPLADNDINTIELLNALIFSLPGTPIIYYGDEIGMGDNIYLGDRNGVRTPMQWSYDRNAGFSMADSEQLYSPVITNPNYHYESVNVEAELRLSSSLLNWMIKIIHVRKDYKELLGRGSIKFIEQGNKRVLSYIREYENQRMLCLFNLSRNPTYVELNLSDYIGLKPIEAITKAAFPRIKDDRYFITMTPRSFFWFNLIVPERDDSYDLIGED
As to B1, in data set [1] (PTTS without His-tag), the “specific activity relative to the recombinant His-tag fusion PTTS” value is “about 1.3 fold”.

B2: PTTS: recombinant Picrophilus torridus trehalose synthase with C-terminal linker and His(6)-tag (SEQ ID NO: 4), expressed in E. coli (protein, listed as Picrophilus torridus)
chain: MLDNNGLWYRDAVFYEVPVKSFYDSNNDGIGDFNGLTMKLDYLKKLGVDALWLLPFYKSPLKDDGYDISDYYSILPEYGTIDDFKNFIDTAHSMNIRVIADLVLNHVSDQHPWFIESRSSIDNPKRDWFIWSDTPEKFKEARIIFIDTEKSNWTYDPETKQYYFHRFYSSQPDLNYDNPDVRNEVKKVIRYWLDLGLDGFRADAVPYLFKRENTNCENLPETHNFFKEIRKMMDEDYPGTILLAEANQWPTETKAYFGNGDEFHMAFNFPLMPRIFIALARSDYYPIMDIIKQTLPIPDNCDWCIFLRNHDELTLEMVTDSERDIMYREYAKIPKMRLNLGIRRRLAPLADNDINTIELLNALIFSLPGTPIIYYGDEIGMGDNIYLGDRNGVRTPMQWSYDRNAGFSMADSEQLYSPVITNPNYHYESVNVEAELRLSSSLLNWMIKIIHVRKDYKELLGRGSIKFIEQGNKRVLSYIREYENQRMLCLFNLSRNPTYVELNLSDYIGLKPIEAITKAAFPRIKDDRYFITMTPRSFFWFNLIVPERDDSYDLIGEDANSRVDKLAAALEHHHHHH
Regarding B2, the specific activity in data set [1] (purified recombinant His-tag PTTS after Ni-column, 1 unit = 1 μmol trehalose per min) is recorded as 80 units per mg of protein. Besides, in data set [1] (recombinant PTTS, estimated), the “specific activity toward maltose” value is “about 80 units/mg protein”. Moreover, in data set [1] (toward maltose), the “specific activity as share of that of T. aquaticus trehalose synthase” value is recorded as “about 60%”, the “specific activity relative to M. smegmatis trehalose synthase” value is reported as “about 2.8 fold”, the “specific activity relative to P. stutzeri CJ38 trehalose synthase” value is listed as “roughly equal” and the “specific activity relative to Pimelobacter trehalose synthase” value was “about 4.7 fold”. The “activity at pH 5.0” value in data set [2] (45° C., 150 mM maltose) is given as “maintained high activity”. Besides, the “optimum pH” value in data set [2] (45° C., 150 mM maltose, acetate or phosphate buffer) is reported as 6.0. Besides, the “activity maintained at pH 5.0” value in data set [2] (pH 5.0) is reported as 80%. The molecule also registered an optimum temperature in data set [2] (pH 6.0, 150 mM maltose) of 45 °C. In data set [3], the “enzyme efficiency (kcat/KM) toward maltose relative to trehalose” value came to 2.5 fold and the “kcat for trehalose relative to maltose” value is listed as “twofold higher”. In data set [4] (setting [6]), the glucose content worked out at 3.6%, the maltose content stood at 25.4% and the “maximum conversion of maltose into trehalose” value stood at 71%. Also, in data set [4] (setting [7]), the glucose content is listed as 4.3%, the maltose content was 27.6% and the “maximum conversion of maltose into trehalose” value was determined as 68%. Besides, in data set [4] (setting [8]), the glucose content amounted to 7.8%, the maltose content was 31.2% and the “maximum conversion of maltose into trehalose” value turned out to be 61%. In data set [4] (setting [9]), this molecule registered a glucose content of 19.2% and a maltose content of 31.3%. Besides, the “incubation time to reach maximum conversion” value in data set [4] (pH 6.0, 45° C., each maltose concentration) turned out to be 24 h. In data set [4] (pH 6.0, 45° C., various maltose concentrations (50 mM to 1 M)), the “maximum conversion of maltose into trehalose” value is reported as “around 60%”. For the same molecule, the “maximum conversion of maltose into trehalose” value in data set [5] worked out at 50%.
